Key:
Conditions in all cases: both partners purified
[1] = molecular target: T1, AGO2 pre-incubated with GRB2 (GRB2-AGO2 complex) (human | , UniProt Q9UKV8 1-859; P62993 1-217, labelled with Atto 488 NHS ester); assay: MST; 2.29 to 75,000 nM unlabelled DICER1^CT with 100 nM Atto 488-labelled AGO2 pre-incubated with 25 uM GRB2; 20 mM HEPES, 150 mM NaCl, 1 mM TCEP pH 7.5
T1 construct: Argonaute 2 (AGO2), human; as m20; as m12; The complex was not isolated: labelled AGO2 (100 nM) stood with an excess of GRB2; source: E. coli BL21(DE3), both purified; AGO2 incubated with 25 or 50 uM GRB2 before the MST

[2] = molecular target: T1, AGO2 pre-incubated with GRB2 (GRB2-AGO2 …); assay: MST; 2.29 to 75,000 nM unlabelled DICER1^CT with 100 nM Atto 488-labelled AGO2 pre-incubated with 50 uM GRB2; 20 mM HEPES, 150 mM NaCl, 1 mM TCEP pH 7.5
[3] = molecular target: T2, AGO2 (purified as GST-AGO2, GST cleaved) (human, UniProt Q9UKV8 1-859, labelled with Atto 488 NHS ester); assay: MST; 2.29 to 75,000 nM unlabelled DICER1^CT with 100 nM Atto 488-labelled AGO2, no GRB2; 20 mM HEPES, 150 mM NaCl, 1 mM TCEP pH 7.5
T2 construct: Argonaute 2 (AGO2), human; source: E. coli BL21(DE3), purified (RNase, glutathione superflow resin, Superdex 75; GST cleaved with thrombin)

His-tagged GRB2 [4] = molecular target: T3, His-tagged GRB2 (UniProt P62993 1-217); assay: ITC; 500 uM MBP-tagged AGO2 domain titrated into 20 uM His-tagged GRB2; 25 C; 20 mM Tris-HCl pH 8, 150 mM NaCl, 10% glycerol, 1 mM beta-mercaptoethanol; one-site model with n fixed at 1
T3 construct: For the MST with DICER1^CT and AGO2 the text writes only GRB2; also called His-GRB2

His-tagged GRB2 [5] = molecular target: T3, His-tagged GRB2; assay: ITC; 1.2 mM peptide titrated into 80 uM His-tagged GRB2; 25 C; 20 mM Tris-HCl pH 8, 150 mM NaCl, 1 mM beta-mercaptoethanol

T3 sequence (P62993 whole entry, the tested form may be a part): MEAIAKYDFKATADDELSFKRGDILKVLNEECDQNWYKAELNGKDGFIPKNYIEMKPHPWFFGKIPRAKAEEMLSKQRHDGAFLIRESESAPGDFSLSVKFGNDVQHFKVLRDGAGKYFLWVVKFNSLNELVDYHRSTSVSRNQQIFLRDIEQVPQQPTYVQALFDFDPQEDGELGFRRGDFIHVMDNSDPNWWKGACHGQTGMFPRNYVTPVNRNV
T1 sequence (Q9UKV8 whole entry, chain 1 of 2): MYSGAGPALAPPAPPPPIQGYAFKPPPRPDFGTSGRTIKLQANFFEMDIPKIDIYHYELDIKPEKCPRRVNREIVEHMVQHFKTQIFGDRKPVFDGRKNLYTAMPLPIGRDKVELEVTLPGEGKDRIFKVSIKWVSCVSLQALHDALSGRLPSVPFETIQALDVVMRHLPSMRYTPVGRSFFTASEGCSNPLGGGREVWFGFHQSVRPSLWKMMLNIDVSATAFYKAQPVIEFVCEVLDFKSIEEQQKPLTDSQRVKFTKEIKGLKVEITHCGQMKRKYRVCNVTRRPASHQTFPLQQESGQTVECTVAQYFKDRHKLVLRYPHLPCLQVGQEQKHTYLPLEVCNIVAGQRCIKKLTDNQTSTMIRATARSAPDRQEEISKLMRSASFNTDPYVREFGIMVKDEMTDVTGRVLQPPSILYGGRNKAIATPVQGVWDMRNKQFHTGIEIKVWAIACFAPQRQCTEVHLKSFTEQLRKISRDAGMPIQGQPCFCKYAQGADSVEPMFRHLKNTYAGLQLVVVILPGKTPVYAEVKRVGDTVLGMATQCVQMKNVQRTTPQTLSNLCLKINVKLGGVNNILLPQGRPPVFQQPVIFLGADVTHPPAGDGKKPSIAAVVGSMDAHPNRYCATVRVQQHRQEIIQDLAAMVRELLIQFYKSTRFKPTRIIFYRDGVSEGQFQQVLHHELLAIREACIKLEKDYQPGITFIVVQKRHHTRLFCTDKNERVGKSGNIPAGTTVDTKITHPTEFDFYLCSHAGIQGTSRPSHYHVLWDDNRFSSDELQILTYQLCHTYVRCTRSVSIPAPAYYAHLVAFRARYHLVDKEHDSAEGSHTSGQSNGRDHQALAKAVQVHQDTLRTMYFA
T1 sequence (P62993 whole entry, chain 2 of 2): as the sequence (P62993 whole entry, the tested form may be a part) above
T2 sequence (Q9UKV8 whole entry): as the sequence (Q9UKV8 whole entry, chain 1 of 2) above

B1: C-terminal domain of DICER1 (DICER1^CT, residues 1276-1922) (domain or fragment, UniProt Q9UPY3 1276-1922, looked up)
chain: DSEQSPSIGYSSRTLGPNPGLILQALTLSNASDGFNLERLEMLGDSFLKHAITTYLFCTYPDAHEGRLSYMRSKKVSNCNLYRLGKKKGLPSRMVVSIFDPPVNWLPPGYVVNQDKSNTDKWEKDEMTKDCMLANGKLDEDYEEEDEEEESLMWRAPKEEADYEDDFLEYDQEHIRFIDNMLMGSGAFVKKISLSPFSTTDSAYEWKMPKKSSLGSMPFSSDFEDFDYSSWDAMCYLDPSKAVEEDDFVVGFWNPSEENCGVDTGKQSISYDLHTEQCIADKSIADCVEALLGCYLTSCGERAAQLFLCSLGLKVLPVIKRTDREKALCPTRENFNSQQKNLSVSCAAASVASSRSSVLKDSEYGCLKIPPRCMFDHPDADKTLNHLISGFENFEKKINYRFKNKAYLLQAFTHASYHYNTITDCYQRLEFLGDAILDYLITKHLYEDPRQHSPGVLTDLRSALVNNTIFASLAVKYDYHKYFKAVSPELFHVIDDFVQFQLEKNEMQGMDSELRRSEEDEEKEEDIEVPKAMGDIFESLAGAIYMDSGMSLETVWQVYYPMMRPLIEKFSANVPRSPVRELLEMEPETAKFSPAERTYDGKVRVTVEVVGKGKFKGVGRSYRIAKSAAARRALRSLKANQPQVPNS
modifications: labelled with Atto 488 NHS ester in the MST with GRB2; unlabelled in the MST with AGO2
notes: DICER1, residues 1276-1922, with the RNase III domains; also called DICER1 C-terminal region
Kd [1]: 7.9 ± 1.3 µM | Kd [2]: 4.6 ± 0.6 µM | Kd [3]: 17.6 ± 1.7 µM

B2: MBP-tagged AGO2 PAZ domain (residues 235-348) (domain or fragment)
chain: not shown
notes: Argonaute 2 (AGO2), human, PAZ domain, residues 235-348, in pMAL-c5x; The methods say that RNA was left in the PAZ preparation; also called MBP-PAZ; PAZ WT; source: E. coli BL21(DE3), purified (MBPTrap HP, SEC); not shown: MBP, N-terminal, kept
Kd (His-tagged GRB2 [4]): 0.585 ± 0.061 µM | stoichiometry N (His-tagged GRB2 [4]): 1

B3: PRM-containing peptide from the AGO2 PAZ domain (residues 317-333) (peptide)
peptide: KLVLRYPHLPCLQVGQE
notes: Argonaute 2 (AGO2), human, PAZ domain, residues 317-333; also called peptide spanning the proline-rich motif 323PHLP326
Kd (His-tagged GRB2 [5]): 4.27 ± 1.17 µM

From paper PMC10276003, “Regulation of microRNA expression by the adaptor protein GRB2” (Scientific Reports, 2023)
